From PMC4415972

Tests used:
[1] = biological target: synaptic membrane proteins in SMPL Nanodiscs (immobilised on magnetic beads); test: ELISA; magnetic bead-based: SMPL Nanodiscs immobilised through the His tag of MSP on Dynabeads; PBS with 0.1% BSA and 25 mM imidazole; AβOs 1 h at 37°C; bound AβOs detected by NU2 antibody or through biotin (Vectastain) with colorimetric HRP substrate; nonspecific binding measured with excess ATA; Kd as Aβ monomer equivalent
[2] = biological target: binding sites on cultured rat hippocampal neurons; test: immunostaining of cells or tissue; cultured rat hippocampal neurons; biotinylated STI 30 min at 37°C, then 100 nM AβOs 30 min at 37°C; AβOs detected with NU2, STI with a streptavidin conjugate; in the PIPLC experiment 100 nM fluorescent AβOs were seen directly after 1 h of 0.2 units/mL PIPLC

increase in assay response relative to unfractionated AβOs [1] [%] | percent reduction of AβO binding [2] [%] | Substance
80 |  | biotin-labeled high MW AβOs (larger than 50 kDa) (from UniProt P05067 672-713; P05067 672-713) (peptide)
 | 87 | biotinylated soybean trypsin inhibitor type II (from UniProt P01070 25-205) (natural protein)
